From US20260102487A1 (Amgen, published 2026)

B1: BsAb-2 (IL2RB_F09G**IL2RG_F16B) (bispecific antibody, human IgG4, V domains shown)
V domain 1: QVQLQESGPGLVKSSETLSLTCTVSGGSISSSDWWSWVRQPPGKGLEWIGEIDHSGSTNYNPSLMSRVTISVDKSKNQFSLKLSSVTAADTAVYFCARGSWELTDAFDIRGQGTLVTVSS
V domain 2: QVQLVESGGGLVKPGGSLRLSCAASGFTFSDYYMSWIRQAPGKGLEWVSYISSSGSTIYYADSVKGRFTISRDNAKNSLYLQMNSLRAEDTAVYYCARGDAVSITGDYRGQGTLVTVSS
notes: Heavy chain-only bispecific on silenced, stabilised human IgG4 Fc, knobs-into-holes, no light chains; not shown: C-terminal His-tag on the knob chain
B2: BsAb-6 (IL2RB_F18E**IL2RG_F16A) (bispecific antibody, human IgG4, V domains shown)
V domain 1: QVQLVESGGGVVQPGRSLRLSCAASGFTFSSYGMHWVRQAPGKEREWVAVISYDGSNKYYTDSVKGRFTISRDNSKNTLYLEMNSLRAEDTAVYYCARDLDYDVLTGDPVGGFDIWGQGTLVTVSS
V domain 2: QVQLVESGGGLVKPGGSLRLSCAASGFTFSDYYMSWIRQAPGKGLEWVSSISSSGDTIYYADSVQGRFTLSRDNAENSLFLQMNSLRAEDTAVYYCARGDAVSITGDYRGQGTLVTVSS
notes: as for B1
B3: BsAb-4 (IL2RB_F09G**IL2RG_F18A) (bispecific antibody, human IgG4, V domains shown)
V domain 1: QVQLQESGPGLVKSSETLSLTCTVSGGSISSSDWWSWVRQPPGKGLEWIGEIDHSGSTNYNPSLMSRVTISVDKSKNQFSLKLSSVTAADTAVYFCARGSWELTDAFDIRGQGTLVTVSS
V domain 2: QVQLVESGGDLVKPGGSLRLSCAASGFTFSDYYMSWLRQAPGKELEWVSHISSSGTTTYYADSVEGRFTITRDNAKNSLYLQMNSLRAEDTAVYYCARGAAVAPGFDSRGQGTLVTVSS
notes: as for B1
B4: BsAb-5 (IL2RB_F09K**IL2RG_F16B) (bispecific antibody, human IgG4, V domains shown)
V domain 1: QVQLQESSPGLVKPSETLSLTCTVSGGSISSSNWWSWVRQPPGKGLEWIGEISHSGSTNYNPSLKSRVTISVDKSKNQFSLRLSSVTAADTAVYFCGRGSWELTDAFDIRGQGTLVTVSS
V domain 2: QVQLVESGGGLVKPGGSLRLSCAASGFTFSDYYMSWIRQAPGKGLEWVSYISSSGSTIYYADSVKGRFTISRDNAKNSLYLQMNSLRAEDTAVYYCARGDAVSITGDYRGQGTLVTVSS
notes: as for B1
B5: BsAb-3 (IL2RB_F09G**IL2RG_F16C) (bispecific antibody, human IgG4, V domains shown)
V domain 1: QVQLQESGPGLVKSSETLSLTCTVSGGSISSSDWWSWVRQPPGKGLEWIGEIDHSGSTNYNPSLMSRVTISVDKSKNQFSLKLSSVTAADTAVYFCARGSWELTDAFDIRGQGTLVTVSS
V domain 2: QVQLVESGGGLVKPGGSLRLSCAASGFTFNDYYMSWIRQAPGKGLEWVSHISSSGSTIYYADSVKGRFTVSRDNANNSLYLQMHSLRAEDTAVYYCARGDAVSITGDYRGQGTLVTVSS
notes: as for B1
B6: BsAb-1 (IL2RB_F09C**IL2RG_F16A) (bispecific antibody, human IgG4, V domains shown)
V domain 1: QVQLQESGPGLVKPSGTLSLTCAVSGGSISSSDWWSWVRQPPGKGLEWIGEIDHSGSTNYNPSLMSRVTISVDKSKNQFSLKLSSVTAADTAVYFCGRGSWELSDAFDIRGQGTLVTVSS
V domain 2: QVQLVESGGGLVKPGGSLRLSCAASGFTFSDYYMSWIRQAPGKGLEWVSSISSSGDTIYYADSVQGRFTLSRDNAENSLFLQMNSLRAEDTAVYYCARGDAVSITGDYRGQGTLVTVSS
notes: as for B1

Columns and labels:
[1] = target: T1, cynomolgus IL-2Rγ (recombinant protein and on cells) (cynomolgus, UniProt A0A2K5VGJ6 23-254); test: biolayer interferometry (Octet Qk384), antibody captured on anti-human Fc (AHC) sensors, antigen 7.8-500 nM in solution, 1:1 fit, KD = kd/ka
T1 construct: also called cynomolgus IL-2RG
T1 sequence: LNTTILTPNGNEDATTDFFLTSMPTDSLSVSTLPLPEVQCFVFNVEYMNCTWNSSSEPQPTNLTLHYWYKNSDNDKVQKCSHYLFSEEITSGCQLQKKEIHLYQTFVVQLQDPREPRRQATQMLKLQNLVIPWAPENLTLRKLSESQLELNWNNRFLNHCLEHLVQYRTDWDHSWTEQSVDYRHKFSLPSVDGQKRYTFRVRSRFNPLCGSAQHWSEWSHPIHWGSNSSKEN
Method: (§1) All kinetics measurement experiments were performed on a ForteBio Octet Qk384 instrument using anti-human Fc capture (AHC, 18-5005) sensors. The bispecific heavy chain-only antibodies and antigens were diluted to final concentrations in Kinetics buffer (0.02% Tween20, 0.1% BSA, 0.05% sodium azide, 1X PBS). Kinetics measurements were against the following antigens: human IL-2RB (AcroBiosystems), human TL-2RG (AcroBiosystems), cynomolgus IL-2RB (Sino Biological), cynomolgus IL-2RG (expressed and purified in house using ExpiCHO expression system followed by Ni-NTA his-tag purification). The antibodies were loaded on the AHC sensors at 5 μg/mL for maximum loading. Following a short baseline in Kinetics buffer, the sensors were exposed to a series of analyte concentrations (7.8 nM to 500 nM) for association step and background subtraction was used to correct for sensor drifting. Dissociation was monitored in Kinetics buffer. The capture surfaces were regenerated for 60s. All experiments were performed with shaking at 1000 rpm. ForteBio's data analysis software was used to fit the data to a 1:1 binding model to extract an association rate and dissociation rate. The KD was calculated using the ratio kd/ka.

[2] = target: T2, human IL-2Rγ (recombinant protein and on cells) (human, UniProt P31785 23-262, limits assumed); test: as above
T2 construct: recombinant protein and of cells together; also called IL2RG; CD132
T2 sequence: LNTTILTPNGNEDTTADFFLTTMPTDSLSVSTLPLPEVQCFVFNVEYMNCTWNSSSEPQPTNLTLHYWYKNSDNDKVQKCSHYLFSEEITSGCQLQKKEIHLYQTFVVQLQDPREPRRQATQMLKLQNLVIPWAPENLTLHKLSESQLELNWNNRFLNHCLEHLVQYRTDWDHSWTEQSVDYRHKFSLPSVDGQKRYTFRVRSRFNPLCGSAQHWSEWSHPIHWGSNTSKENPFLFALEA
Method: as §1

[3] = target: T3, IL2RB, Cyno (Macaca fascicularis, UniProt Q38J85); test: as above
T3 construct: Same protein as m18, but here as recombinant protein in solution, not on CHO cells; also called cynomolgus IL-2RB (Sino Biological)
T3 sequence (receptor chain, looked up): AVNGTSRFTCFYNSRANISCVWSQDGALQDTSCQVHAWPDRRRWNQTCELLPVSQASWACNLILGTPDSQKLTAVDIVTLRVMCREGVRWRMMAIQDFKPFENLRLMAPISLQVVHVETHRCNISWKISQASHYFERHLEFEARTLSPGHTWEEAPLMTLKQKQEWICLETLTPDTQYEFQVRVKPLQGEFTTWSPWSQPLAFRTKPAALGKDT
Method: as §1

[4] = target: T4, human IL-2Rβγ receptor on primary human T-cells and NK-cells (PBMCs) (human, UniProt P14784 27-551; P31785 23-369); test: flow cytometry cell binding on human CD4+ T-cells (PBMC), gMFI as fold over secondary antibody only
T4 construct: Endogenous receptor on primary cells; also called dimeric IL-2Rβγ receptor complex
T4 sequence 1: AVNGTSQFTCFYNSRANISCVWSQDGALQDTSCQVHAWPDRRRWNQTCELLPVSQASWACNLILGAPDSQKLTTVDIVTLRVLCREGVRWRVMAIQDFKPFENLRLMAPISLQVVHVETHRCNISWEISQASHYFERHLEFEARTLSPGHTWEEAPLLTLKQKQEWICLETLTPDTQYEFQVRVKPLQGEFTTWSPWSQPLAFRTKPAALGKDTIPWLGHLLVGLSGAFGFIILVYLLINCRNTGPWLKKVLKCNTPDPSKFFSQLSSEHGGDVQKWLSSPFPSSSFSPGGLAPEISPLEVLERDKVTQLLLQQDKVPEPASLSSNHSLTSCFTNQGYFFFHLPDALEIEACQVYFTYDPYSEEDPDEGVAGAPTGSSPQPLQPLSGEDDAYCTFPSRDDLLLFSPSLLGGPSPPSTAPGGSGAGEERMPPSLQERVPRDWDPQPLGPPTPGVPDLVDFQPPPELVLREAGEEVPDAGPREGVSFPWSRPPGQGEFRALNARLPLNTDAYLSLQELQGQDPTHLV
T4 sequence 2: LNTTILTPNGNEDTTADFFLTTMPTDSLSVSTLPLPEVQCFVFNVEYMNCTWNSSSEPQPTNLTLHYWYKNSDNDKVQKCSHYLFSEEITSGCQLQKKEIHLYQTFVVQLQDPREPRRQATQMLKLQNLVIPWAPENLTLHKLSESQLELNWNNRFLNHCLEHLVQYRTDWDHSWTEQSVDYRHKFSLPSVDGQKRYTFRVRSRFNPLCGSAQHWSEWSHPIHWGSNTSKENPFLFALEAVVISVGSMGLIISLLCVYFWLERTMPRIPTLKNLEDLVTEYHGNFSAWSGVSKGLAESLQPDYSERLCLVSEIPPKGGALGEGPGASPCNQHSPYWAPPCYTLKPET
Method: All washes and dilutions of cells, antibodies, and reagents were performed using flow buffer (1X PBS, 1% BSA, 0.1% NaN3, pH 7.4). Staining was performed in a round-bottom 96-well plate (Corning) seeded at 100,000 cells/well, and all incubations were performed at 4° C. or on ice. […] The cells were washed twice with 200 μL flow buffer. The cells were then incubated for 30 minutes with detection antibody (Goat F(ab′)2 Anti-Human IgG-PE, Southern Biotech) at 0.625 μg/mL in flow buffer. Following 2 more washes, the cells were resuspended in a final volume of 150 μL of flow buffer. The cells were analyzed on a BD FACSCelesta or a Guava easyCyte 8-HT flow cytometer. At least 3000 events were collected, and PE geometric mean fluorescence intensity was plotted as a fold over background (cells incubated with secondary detection antibody only). In some secondary screens involving human or cynomolgus PBMCs, an additional CD4 antibody (BioLegend) and/or CD8 antibody (BioLegend) was included to further characterize cell binding.

| Binder | Kd [1] | Kd [2] | Kd [3] | EC50 (read off the curve) [4] | binding result [4] |
| --- | --- | --- | --- | --- | --- |
| B1 | 50.2 nM | 17.1 nM | 16.7 nM | ~4 nM | – |
| B2 | 5.42 nM | 1.88 nM | 55.2 nM | ~7 nM | – |
| B3 | 5.81 nM | 2.93 nM | 17.3 nM | ~4 nM | – |
| B4 | 41.5 nM | 20.1 nM | 16.5 nM | – | binds |
| B5 | 3.58 nM | 1.43 nM | 16 nM | ~7 nM | – |
| B6 | 4.87 nM | 1.79 nM | 10.7 nM | ~7 nM | – |
